Assay results from the nanobody polyreactivity screen of Harvey et al. (2022).

Experiment: yeast display, Sf9 membrane polyspecificity reagent, FACS + sequencing; frameworks hold sequencing errors
Method in brief: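 Genes from sorted yeast were amplified by colony PCR, read by MiSeq 2 × 250 sequencing and filtered on CDR length. These cells carried a synthetic nanobody library in Saccharomyces cerevisiae BJ5465 and were sorted by FACS into low and high (top ~1%) gates on anti-HA and streptavidin fluorescence. Polyreactivity is labelled according to the gate of origin.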

QVQIVESGGGLVQAGGSLRLSCAASGRTFWRYTMGWYRQAPGKERELVASISTGGGSTYYADSVKGRFTISRDNAKNTVYLQMNSLKPEDTAVYYCNVEYVSVSRVWRGNYWGQGTQVTVSS
polyreactivity (PSR sort gate): low polyreactivity

QVQLVESGGGLVQAGGSLRLSCAASGSIFAWYAMGWYRPAPGKEWELVAVITRGGSTNYADSLKGRFTISRDNAKNTVYLQMNSLKPEDTAVKYCAAGSYYSWYPFDYWGQGTQVTVSS
polyreactivity (PSR sort gate): low polyreactivity

QVQLVESGGGLVQAGGSLRLSCAASGRIYGYYGMGWYRQAPGKERELVAAITYRGGSTYYADSVKGRFTISRDNAKNTVYLQMNSLKPEDTAVYYCAADGYSHYRYLYDYWGQGTQVTVSS
polyreactivity (PSR sort gate): low polyreactivity

QVQLVESGGGLVQAGGSLRLSCAASGRIFYANAMGWYRQAPGKERELVAAISSGGSTYYADSVKGRFTISRDNAKNTVYLQMNSLKPEDTAVYYCATDYQSTSVWGGHFVINPYDYWGQGTQVTVSS
polyreactivity (PSR sort gate): low polyreactivity

QVQLVESGGGLVQAGGSLRLSCAASGIIFTKYVMGWYRQAPGKERELVAAINTDGGSTRYADSVKGRFTISRDNAKNTVYLQKNSLKPEDTAVYYCAAVSSRRPGYEYYYWGQGTQVTVSS
polyreactivity (PSR sort gate): high polyreactivity

QVQLVESGGGLVQAGGSLRLSCAASGSIFSTYTMGWYRQAPGKERELVAAITRSGGSTYYADSVKGRFTISRDNAKNTVYLQMNSLKPEDTAVYYCAARWKFPSSFYYWGQGTQVTVSS
polyreactivity (PSR sort gate): high polyreactivity

QVQLVESGGGLVHAGGSLRLSCAAYGSIFYSYAMGWYRQAPGKERELVAAITSVGNTNYADSVKGRFTISRDNAKNTVYLQMNSLKPEDTAVYYYWGQGTQVTVSS
polyreactivity (PSR sort gate): low polyreactivity

QVQLVESGGGLVQAGGSLRLSCAASGRICGSYAMGWYRQAPGKERELVADISWRGTSTYYADSVKGRFTISRDIAKNTVYLQMNSLKPEDTAVYYCAARGLWPYDYWGQGTQVTVSS
polyreactivity (PSR sort gate): low polyreactivity

QVQLVESGGGLVQAGGSLRLSCAASGSNLVQNAMGWYRQAPGKERELVAAINWSGASTYYADSVKGRFTISRDNAKNTVYLQMNSLKPEDTAVYYCATVTLFFTDYYSWADVYTEYDYWGQGTQVTVSS
polyreactivity (PSR sort gate): low polyreactivity

QVQLVESGGGLVQAGGSLRLSCAASGRIFKYYAMGWYREAPGKERELVAAIDWRGDSTYYADSVKGRFTISRDHAKNTVYLQMNSLKPEDTAVYYCAVVGTRGYHGYDSWGQGTQVTVSS
polyreactivity (PSR sort gate): low polyreactivity

QVQLQESGGGLVQAGGSLRMSCAASGTIVSEANMGWYRQAPGKERELVATIGQGSTTNYADSVKGRFTISRDNAKNTVYLQMNSLKPEETAVYYCAVVTVDPVGFVYWGQGTQVTVSS
polyreactivity (PSR sort gate): low polyreactivity

QVQLQESGGGLVQAGGSLRLSCAASGSISSRDAMGWYRQAPGKEREFVATIASGTTTYYADSVKGSFTISRDNAENTVYLQTYRLKPEDTAVYYCAAPTIQIYPFYYWGQGTQVNVSS
polyreactivity (PSR sort gate): high polyreactivity

QVQLVESGGGLVQAGGSLRLSCAASGSTFDWYAMGWYRQATGKETELVAAISWSDTSTYYADSVKGRFTISRDNAKNTVYLKMNSLKPEDTAVYYCNDEALYYYDSYDYWGQGTQVTVSS
polyreactivity (PSR sort gate): high polyreactivity

QVQLVESGGGLVQAGGSLRLSCAASGIIFYGYAMGWYRQAPGKERELVAGISSGGSTYYADSVKGRFTISRDNAKNTVYLQMNSLKPEDTAVYYCNADGGYSYESTDHYGYDYWGQGTQVTVSS
polyreactivity (PSR sort gate): low polyreactivity

QVQLVESGGGLVQAGGSLRLSCAASGSTFRGYAMGSYRQAPGKETELVATITSGGSTNYADSVKGRFTISRDNAKNTVSLQMNSLKPEDTAVYYCNARWVPSYWKYFHANYGYWGQGTQVTVSS
polyreactivity (PSR sort gate): high polyreactivity

QVQLVESGGGLVQAGGSLRLSCAASGFIDYDNAMGWYRQAPGKERELVAAITSGGSTYYADSVKGRFTISRDNAKNTVYLQMNSLKPEDTAVYYCARESGYRAYEIQFYYWGQGTQVTVSS
polyreactivity (PSR sort gate): high polyreactivity

QDQLVESGGGLVQSGGSLRLSCAASGYIFGPYAMGWYRQAPGKEREFVATISGSVGSTYYADSVKGRFTISRDNGKNTVYLQMNSLKPQDTAVYYCNKDHSVYGYEYWGQGTQVTVSS
polyreactivity (PSR sort gate): low polyreactivity
